Assay [1] has as its target T1, CD16aV allotype of human CD16a expressed on Jurkat-Lucia-NFAT-CD16 Reporter cells (InvivoGen) (human, UniProt P08637 17-254). Kind of assay: cell-based or functional assay.
The target in assay [2] is T2, full length human CD16b stably expressed on transduced WT Jurkat cells (human, UniProt O75015 17-200).
T2 construct: whole, on cells; also called CD16b expressing cells; Jurkat CD16b
Kind of assay: flow cytometry on Jurkat-CD16b cells, 5-fold serial dilutions, detection with Penta-His Alexa Fluor 488. The protocol:
(§1) Serial dilutions (5-fold) of the constructs were incubated 30 min at 4° C. with 50000 cells in a 96-well plate. […] Cold buffer was added, then cells were spun down prior to supernatant removal. Cells were then fixed with Cell fix buffer (BD) and signal was measured by flow cytometry.

The target in assay [3] is T3, CD32a expressed on Jurkat-NFAT-CD32a reporter cells (Invivogen jktl-nfat-cd32) (UniProt P12318 34-317, limits assumed).
T3 construct: whole, on cells; also called Jurkat-Lucia NFAT-CD32a Reporter cells; Fc receptor CD32a
T3 sequence (looked up): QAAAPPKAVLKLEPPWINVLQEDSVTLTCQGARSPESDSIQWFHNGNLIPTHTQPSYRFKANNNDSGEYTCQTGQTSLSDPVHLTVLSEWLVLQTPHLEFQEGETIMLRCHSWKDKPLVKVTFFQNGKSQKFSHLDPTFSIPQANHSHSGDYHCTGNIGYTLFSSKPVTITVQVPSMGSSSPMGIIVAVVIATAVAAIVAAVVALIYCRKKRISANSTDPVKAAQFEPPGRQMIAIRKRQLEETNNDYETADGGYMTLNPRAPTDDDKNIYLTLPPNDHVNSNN
Kind of assay: flow cytometry on Jurkat-NFAT-CD32a cells, 4-fold serial dilutions, detection with anti-DARPin 1.1.1 antibody. On the procedure:
Serial dilutions (4-fold) of the constructs were incubated 30 min at 4° C. with 50000 cells in a 96-well plate. Detection antibody (anti-DARPin 1.1.1 Alexa Fluor […]) was subsequently added to the wells (2 μg/ml diluted in FACS buffer) and incubated at 4° C. for 30 min. Cold buffer was added, then cells were spun down prior to supernatant removal. Cells were then fixed with Cell fix buffer (BD) and signal was measured by flow cytometry.
A general note: In flow cytometry, cells or beads pass a laser one at a time.

In assay [4] the target is T1, CD16aV allotype of human CD16a …. Kind of assay: cell-based or functional assay. This is another data set of the same source.
The target of assay [5] is T2, full length human CD16b stably …. Kind of assay: flow cytometry on Jurkat cells expressing CD16b, conditions as in Example 2.
In assay [6] the target is T1, CD16aV allotype of human CD16a …. Put plainly: flow cytometry on Jurkat cells expressing CD16aV, conditions as in Example 2.
The target is the same in assay [7]. Kind of assay: flow cytometry on Jurkat-CD16aV cells, 5-fold serial dilutions, detection with Penta-His Alexa Fluor 488. On the procedure:
as §1

The target of assay [8] is T2, full length human CD16b stably …. Put plainly: flow cytometry on Jurkat-CD16b cells, serial dilutions, detection with Penta-His Alexa Fluor 647.
Assay [9] has as its target T1, CD16aV allotype of human CD16a …. Put plainly: flow cytometry on Jurkat-CD16aV cells, serial dilutions, detection with Penta-His Alexa Fluor 647.
The target is the same in assay [10]. Put plainly: cell-based or functional assay. The source holds these as a separate data set.
The target of assay [11] is T4, biotinylated human CD16aV target (bio-CD16aV of SEQ ID NO: 72) (human, UniProt P08637 17-208, biotinylated (Sulfo-NHS-LC-Biotin kit)).
T4 construct: also called recombinant CD16a target
Kind of assay: SPR (ProteOn XPR36), bio-CD16aV immobilised on NLC chip, construct injected at 100 nM and 1:3 dilutions, PBST, 1:1 Langmuir fit. On the procedure: SPR measurements were performed using a ProteOn XPR36 instrument (BioRad). […] The signals were double referenced against the running buffer (PBST) treated control lanes.

The target of assay [12] is T4, biotinylated human CD16aV target …. Put plainly: SPR (ProteOn XPR36), biotinylated target on neutravidin chip, DARPin injected at 100 nM and 1:3 dilutions, 1:1 Langmuir fit. On the procedure: (§2) SPR measurements were performed using a ProteOn XPR36 instrument (BioRad). Each of biotinylated human target (bio-CD16aV of SEQ ID NO: 72) and biotinylated cyno target (bio-cCD16 of SEQ ID NO: 76) were immobilized on a neutravidin chip (NAHLC200M, Xantec ProteOn Sensor Chip) to a level of about 320 RU. The interactions of purified CD16a-specific ankyrin construct with bio-CD16aV or bio-cCD16 were measured by injecting the DARPins at 100 nM (and 1:3 dilutions) with an association of 180 s and dissociation of 600 s using a constant flow of 30 μl/min. The target was regenerated between the individual measurements using 31 mM H3PO4. The signals were double referenced against the running buffer (PBST) treated control lanes. The KD were calculated with a 1:1 Langmuir model fitting from the estimated on- and off-rates using standard procedures known to the person skilled in the art.

Assay [13] has as its target T5, biotinylated cynomolgus CD16 target (bio-cCD16 of SEQ ID NO: 76) (cynomolgus monkey, biotinylated).
T5 construct: also called Cyno CD16a
T5 chain: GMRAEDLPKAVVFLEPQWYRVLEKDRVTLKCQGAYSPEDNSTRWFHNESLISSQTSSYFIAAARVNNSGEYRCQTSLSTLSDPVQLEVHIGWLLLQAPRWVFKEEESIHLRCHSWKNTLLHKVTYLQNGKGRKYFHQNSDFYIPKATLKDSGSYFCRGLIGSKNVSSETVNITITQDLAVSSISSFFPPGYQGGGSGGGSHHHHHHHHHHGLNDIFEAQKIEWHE
The description is as above. On the procedure: as §2

Substitutions are numbered along the chain they refer to.

T2 sequence (O75015 17-200): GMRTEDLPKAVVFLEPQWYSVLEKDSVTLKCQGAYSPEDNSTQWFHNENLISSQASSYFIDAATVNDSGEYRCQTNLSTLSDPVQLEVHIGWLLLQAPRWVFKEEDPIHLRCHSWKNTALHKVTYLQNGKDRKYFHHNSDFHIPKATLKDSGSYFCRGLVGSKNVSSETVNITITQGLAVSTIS
T1 sequence (P08637 17-254 F176V): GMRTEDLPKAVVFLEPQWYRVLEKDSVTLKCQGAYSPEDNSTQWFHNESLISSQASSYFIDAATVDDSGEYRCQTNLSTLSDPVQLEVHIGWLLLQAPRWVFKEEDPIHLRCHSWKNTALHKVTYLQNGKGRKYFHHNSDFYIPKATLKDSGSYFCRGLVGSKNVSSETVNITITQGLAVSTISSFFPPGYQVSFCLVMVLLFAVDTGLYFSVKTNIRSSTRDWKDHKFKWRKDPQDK
T4 sequence (P08637 other isoform, or with tags, fused parts or gaps): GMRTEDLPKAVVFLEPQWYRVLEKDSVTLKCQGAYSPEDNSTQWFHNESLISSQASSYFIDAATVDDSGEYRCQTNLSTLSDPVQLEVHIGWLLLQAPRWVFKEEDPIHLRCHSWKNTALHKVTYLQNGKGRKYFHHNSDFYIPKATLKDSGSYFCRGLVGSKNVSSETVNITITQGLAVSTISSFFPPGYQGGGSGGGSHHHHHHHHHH

B1: Construct No. 3 (SEQ ID NO: 13), 2D (CD16a × HER2), DARPin #2 with C-terminal HER2 binder of SEQ ID NO: 9 (designed binder)
chain: MRGSHHHHHHGSDLGQKLLRAAKKGQDDEVRELLKAGADVNAKDEQGWTPLHIAAWKGHLEIVEVLLKAGADVNAKDVFDWTPLHVAAHFGHLEIVEVLLKAGADVNAQDRAGETPADLAAQAGHEDIAEVLQKAAGSPTPTPTTPTPTPTTPTPTPTGSDLGIKLLFAAAKGQDDEVRELLKAGADVNAKDFQGVTPLHIAAQSGHLEIVEVLLKAGADVNAKDVTGDTPLHLAAQHGHLEIVEVLLKAGADVNAQDERGWTPADLAADWGHEDIAEVLQKAA
notes: Bispecific DARPin; also called Construct 3
With B1, the “EC50 (pM), ADCC reporter assay (luminescence), SKOV3 target cells, E:T 5:1, 5 h” value in [1] was determined as 0.19 pM. Further, the results for the binding result in assay [2] and in assay [3] were “no binding (tested: 1000 nM)” and “no binding (tested: 400 nM)”, respectively.

B2: Construct 25 (SEQ ID NO: 94), CD117 × CD16a, CD117 binder SEQ ID NO: 84 N-terminal of DARPin #7 (designed binder)
chain: MRGSHHHHHHGSDLGQKLLKAAQYGQDDEVRILLAAGADVNAKDWAGKTPLHVAAEAGHLEIVEVLLKAGADVNAKDKAGETPLHLAAEQGHLEIVEVLLKAGADVNAQDEWGQTPADLAAYYGLEDIAEVLQKAAGSPTPTPTTPTPTPTTPTPTPTGSDLGQKLLRAAKKGQDDEVRELLKAGADVNAKDEQGWTPLHNAAWKGHLEIVEVLLKAGADVNAKDVFDWTPLHVAAHFGHLEIVEVLLKAGADVNAQDRAGETPADLAAQAGHEDIAEVLQKAA
notes: Bispecific DARPin; also called Construct No. 25
B2: in assay [4], the “EC50 (pM), DDCC reporter assay (luminescence), Kasumi-1 target cells, E:T 1:1, 24 h” value turned out to be 59.5 pM and the “Top (RLU), DDCC reporter assay (luminescence), Kasumi-1 target cells” value is 36400 RLU. Moreover, the binding result in assay [5] is listed as “no binding”. In [6], the response was half-maximal at 25.3 nM (EC50).

B3: Construct No. 2 (1D CD16a; DARPin #3 of SEQ ID NO: 3 with N-terminal His tag) (designed binder)
chain: MRGSHHHHHHGSDLGKKLLQAARAGQLDEVRELLKAGADVNAKDEQGRTPLHIAAASGHLEIVEVLLKAGADVNAKDWFGITPLHIAAWWGHLEIVEVLLKAGADVNAKDQEGRTPLHIAAAIGHLEIVEVLLKAGADVNAQDKSGKTPADLAARAGHQDIAEVLQKAA
notes: also called Construct 2
With B3, in assay [2], the binding result is “no binding (tested: 1000 nM)”. Also, the EC50 (read off the curve) (commonly the concentration needed to bring the measured effect to its halfway point) in assay [7] was approximately 20 nM.

B4: Construct No. 18 (SEQ ID NO: 21), 2D (HER2 × CD16a), DARPin #6 with N-terminal HER2 binder of SEQ ID NO: 9 (designed binder)
chain: MRGSHHHHHHDYKDDDDKPTPTPTGSDLGIKLLFAAAKGQDDEVRELLKAGADVNAKDFQGVTPLHIAAQSGHLEIVEVLLKAGADVNAKDVTGDTPLHLAAQHGHLEIVEVLLKAGADVNAQDERGWTPADLAADWGHEDIAEVLQKAAGSPTPTPTTPTPTPTTPTPTPTGSDLGKKLLEAAEEGQDDEVRELLKAGADVNAKDEWGSTPLHIAAWVGHLEIVEVLLKAGADVNAKDSLGATPLHLAAEAGHLEIVEVLLKAGADVNAQDLKGKTPADLAALEGHEDIAEVLQKAA
notes: Bispecific DARPin; also called Construct 18
In the case of B4, the binding result was “no binding (tested: 1000 nM)” in assay [8] and “binds” in [9].

B5: Construct No. 17 (SEQ ID NO: 20), 2D (HER2 × CD16a), DARPin #5 with N-terminal HER2 binder of SEQ ID NO: 9 (designed binder)
chain: MRGSHHHHHHDYKDDDDKPTPTPTGSDLGIKLLFAAAKGQDDEVRELLKAGADVNAKDFQGVTPLHIAAQSGHLEIVEVLLKAGADVNAKDVTGDTPLHLAAQHGHLEIVEVLLKAGADVNAQDERGWTPADLAADWGHEDIAEVLQKAAGSPTPTPTTPTPTPTTPTPTPTGSDLGAKLLRAAKKGQDDEVRELLKAGADVNAKDELGFTPLHVAAEEGHLEIVEVLLKAGADVNAKDSWGATPLHVAAWVGHLEIVEVLLKAGADVNAQDQEGQTPADLAAEAGHEDIAEVLQKAA
notes: Bispecific DARPin; also called Construct 17
Consider B5, for which the figures for the binding result in assay [8] and in [9] were “no binding (tested: 1000 nM)” and “binds”, respectively.

B6: Construct No. 7 (SEQ ID NO: 10), 2D (HER2 × CD16a), DARPin #2 with N-terminal HER2 binder of SEQ ID NO: 8 (designed binder)
chain: MRGSHHHHHHGSDLGKKLLEAARAGQDDEVRELLKAGADVNAKDEYGLTPLYLATAHGHLEIVEVLLKAGADVNAVDAIGFTPLHLAAFIGHLEIAEVLLKAGADVNAQDKFGKTPADIAAGAGNEDIAEVLQKAAGSPTPTPTTPTPTPTTPTPTPTGSDLGQKLLRAAKKGQDDEVRELLKAGADVNAKDEQGWTPLHIAAWKGHLEIVEVLLKAGADVNAKDVFDWTPLHVAAHFGHLEIVEVLLKAGADVNAQDRAGETPADLAAQAGHEDIAEVLQKAA
notes: Bispecific DARPin; also called Construct 7
Regarding B6, the “EC50 (pM), ADCC reporter assay (luminescence), SKOV3 target cells, E:T 5:1, 5 h” value in assay [1] is 0.37 pM. The “EC50 ADCC reporter assay (CD16a) (pM), SKOV3 target cells, E:T 1:1, 24 h” value in assay [10] was 4 pM. For the same molecule, in [3], the binding result was “no binding (tested: 400 nM)”.

B7: Construct No. 1 (1D CD16a; DARPin #2 of SEQ ID NO: 2 with N-terminal His tag) (designed binder)
chain: MRGSHHHHHHGSDLGQKLLRAAKKGQDDEVRELLKAGADVNAKDEQGWTPLHIAAWKGHLEIVEVLLKAGADVNAKDVFDWTPLHVAAHFGHLEIVEVLLKAGADVNAQDRAGETPADLAAQAGHEDIAEVLQKAA
notes: also called Construct 1
In the case of B7, the binding result in [2] is given as “no binding (tested: 1000 nM)”; in assay [7] it was “binds”. Besides, the Kd (as a rule, the equilibrium constant for the complex coming apart) in assay [11] is 3.3 nM; in assay [12] it was 5.94 nM; in [13], 3.41 nM.

B8: DARPin #7 (SEQ ID NO: 7) with N-terminal His tag (designed binder)
chain: B7 chain with I53N
For the molecule B8, the Kd was found to be 1.98 nM in assay [12] and 0.904 nM in [13].

B9: Construct No. 16 (SEQ ID NO: 19), 2D (HER2 × CD16a), DARPin #4 with N-terminal HER2 binder of SEQ ID NO: 9 (designed binder)
chain: MRGSHHHHHHDYKDDDDKPTPTPTGSDLGIKLLFAAAKGQDDEVRELLKAGADVNAKDFQGVTPLHIAAQSGHLEIVEVLLKAGADVNAKDVTGDTPLHLAAQHGHLEIVEVLLKAGADVNAQDERGWTPADLAADWGHEDIAEVLQKAAGSPTPTPTTPTPTPTTPTPTPTGSDLGEKLLLAAALGQDDEVRELLKAGADVNAKDVQGSTPLHLAAVEGHLEIVEVLLKAGADVNAKDQWGQTPLHVAAIWGHLEIVEVLLKAGADVNAQDELGKTPADLVALQGHEDIAEVLQKAA
notes: Bispecific DARPin; also called Construct 16
As to B9, the figures for the binding result in assay [8] and in assay [9] were “no binding (tested: 1000 nM)” and “binds”, respectively.

The record behind these values is US20260250338A1 (Molecular Partners, published 2026).
